Results published in patent publication US20250355001A1, “METHOD FOR DETECTING A TAU PROTEIN FRAGMENT IN A SAMPLE” (GTINVENT LIMITED, priority 2022, published 2025).

B1: S1D12: sheep-derived anti-tau core clone; scFv SEQ ID NO: 32, VH 443, VL 444 (protein)
scFv: QVQLQESGPSLVKPSQTLSLTCTVSGFSLNNNAVGWVRQAPGKVPESLVGCSSDGTCYYNSALKSRLDITRDTSKNQISLSLSSVTTDDAAVYYCTRGHYSIYGYDYLGTIDYWGPGLLVTVSSEGKSSGASGESKVDDQAVLTQPSSVSGSLGQRVSITCSGSSSNVGGGNSVGWYQHLPGSGLKTIIYDTNSRPSGVPDRFSGSRSGNTATLTINSLQAEDEGDYYCVTGDSTTHDDLVGSGTRLTVLG
modifications: S1D12 amino acid sequence
B2: CE2: anti-tau core clone, Table 10; SEQ ID NO: 366 (protein)
scFv: QVQLQESGPSLVKPSQTLSLTCTVSGFSLTNYPVGWVRQAPGKALEWIGNIENDGSANYASALKSRLSITRDTSKNQVSLSLSSATTEDTAVYYCGREFGGSDGYTYFVDIDYWGPGLLVTVSSEGKSSGASGESKVDDQAVLTQPSSVSKSLGQSVSITCSGSSSNVGYGNYVSWFQQVPGSAPKILIYGATSRASGVPDRFSGSRSGNTATLTITSLQAEDEADYYCASYDGSSSGVFGSGTRLTVLG
modifications: CE2/E1B8 amino acid sequence
B3: S1G2: sheep-derived anti-tau core clone; scFv SEQ ID NO: 81, VH 455, VL 456 (protein)
scFv: QVQLQESGPSLVKPSQTLSLTCTVSGFSLTSNSVGWVRQAPGKAPEWVAGIDTDGEEGYNPALNSRLSITRDTSKSQVSLSLSSVTSEDTAVYYCGRSYRADGLAYGYVQAIDYWGPGLLVTVSSEGKSSGASGESKVDDQAVVTQPSSVSGSLGQRVSITCSGSFIGISSVGWFQQLPGSGLRTIIVASDGRPSGVPDRFSMSKSGNTATLTISSLQAEDEADYFCGSSDRTPYTGVFGSGTRLTVLG
modifications: S1G2 amino acid sequence

Assays:
htau40 = target: T1, htau40 (Homo sapiens, UniProt P10636); test: Biacore X100 SPR kinetics of anti-tau mAbs on immobilised htau40; format: binding
T1 construct: Full length tau (hT40)
Procedure, shortened: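 Htau40 amine-coupled to CM5 chip (~250 RU, pH 4.0 immobilisation), reference flow cell subtracted; mAb injected at 0.78–25 nM in HBS-EP+, 120 s association, 600 s dissociation, glycine pH 1.5 regeneration. Kinetic and affinity constants from 1:1 binding model fit.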

[1] = system: 13 aa tau peptides of hT40; test: Alanine scanning mutagenesis (ASM) peptide ELISA; format: binding, human; conditions: alanine substituted peptides; numbering SEQ ID NO: 1
aggregated dGAE = aggregated dGAE (Homo sapiens, UniProt P10636); test: Capture ELISA ranking mAbs for capture of dGAE aggregates; format: binding; conditions: capture mAb 1 μg/ml; 800 nM aggregated dGAE
Procedure: The aggregation cascade of natively unfolded tau into insoluble filaments is a defining pathological feature of AD. Therefore, it is logical to target aggregated tau filaments for both therapeutic and diagnostic purposes. The following experiment was performed to assess the ability of our dGA mAb panel to bind aggregated dGAE using a capture ELISA method. Aggregates were prepared by incubating 100 μM dGAE and 10 mM dTT for 24 h at 37° C. with shaking at 700 RPM. The following day, dGAE aggregates were centrifuged at 17,000×g for 20 min and the supernatant was removed. The remaining pellet was washed with 10 mM phosphate buffer and centrifuged as above. Washing was repeated a further two times to remove any remaining dGAE monomer. The dGAE pellet was resuspended in 100 μl of 10 mM phosphate buffer. (Using a separate capture ELISA based quantification, we have worked out the efficiency of our dGAE aggregation as 80%)
Following washing, 800 nM aggregated dGAE was added to the designated wells, double diluted across the plate and incubated for 1 h at RT. The plate was washed again and 1 μg/ml S1G2 scAb was added as detection antibody and incubated for 1 h at RT. To the row where S1G2 mAb was used for capture, […] s1D12 scAb was added as […] instead of S1G2. The assay was developed using HRP labelled HuCK as described previously.

dGAE aggregates = dGAE aggregates (Homo sapiens, UniProt P10636); test: Epitope occlusion assay: dGAE aggregation with/without LMTM, 423 mAb capture ELISA; format: biochemical; conditions: total and supernatant samples; 423 mAb capture
Procedure: During dGAE aggregation in vitro, scAb binding regions on dGA/dGAE are ‘hidden’ or ‘occluded’ which leads to a loss of immunoreactivity in aggregation samples. Here we have shown the occlusion of binding regions in aggregated dGAE samples and the recovery of immunoreactivity in the presence of LMTM, a tau-aggregation inhibitor. For preparing the aggregates, 10 μl 10 mM DTT was added to 1000 μl 100 μM dGAE and agitated with/without LMTM (1:5 ratio) at 700 rpm for 24 h at 37° C. Following overnight agitation, one third of each sample was kept aside as ‘total’ and the rest was spun down at 16000×g for 30 min and separated into ‘supernatant’ and ‘pellet’. The pellet was then resuspended in half the original volume for further experiments. […] Doubling dilutions of dGAE aggregate ‘total’, ‘supernatant’ and ‘pellet’ samples at 10 μg/ml starting concentration were added to designated wells in doubling dilutions in 1×PBS. dGAE monomer (non-aggregated) was included as assay control. All double dilutions were done in final volumes of 100 μl. This was left to incubate on lab bench for 1 h followed by the addition of test scAbs at 10 μg/ml. Anti-HuCk HRP labelled secondary antibody was added as described previously and ELISA data generated is represented using the graph below.

[2] = Table 27, mAb format, immobilised htau40
[3] = second Table 25, newly converted mAbs, hT40

T1 sequence (P10636 1-441 isoform P10636-8): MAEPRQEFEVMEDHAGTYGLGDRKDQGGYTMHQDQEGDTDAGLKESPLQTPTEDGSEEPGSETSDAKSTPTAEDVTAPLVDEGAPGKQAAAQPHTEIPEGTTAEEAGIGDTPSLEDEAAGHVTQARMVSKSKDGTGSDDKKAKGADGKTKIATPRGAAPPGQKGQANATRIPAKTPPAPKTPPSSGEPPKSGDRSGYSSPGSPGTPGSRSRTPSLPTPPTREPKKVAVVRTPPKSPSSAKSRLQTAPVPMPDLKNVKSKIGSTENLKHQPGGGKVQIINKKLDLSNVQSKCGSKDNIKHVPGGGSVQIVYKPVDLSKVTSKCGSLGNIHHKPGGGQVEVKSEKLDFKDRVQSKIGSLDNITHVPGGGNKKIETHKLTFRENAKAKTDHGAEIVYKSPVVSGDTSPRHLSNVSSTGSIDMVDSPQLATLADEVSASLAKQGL
Sequence of aggregated dGAE (P10636 614-708): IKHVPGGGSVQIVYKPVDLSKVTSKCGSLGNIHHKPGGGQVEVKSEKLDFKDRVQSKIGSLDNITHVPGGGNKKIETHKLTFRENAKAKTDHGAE
Sequence of dGAE aggregates (P10636 614-708): as above

Molecule | ka (htau40; [2]) | kd (htau40; [2]) | Kd (htau40; as quoted in Example 32, read-out: affinity) | critical binding residues [1] | ability to capture dGAE aggregates (aggregated dGAE) | immunoreactivity to dGAE aggregation samples prepared in the presence of LMTM (dGAE aggregates) | ka (htau40; [3]) | kd (htau40; [3])
B1 | 405800 M⁻¹ s⁻¹ | 4.093e-05 s⁻¹ | 0.12 nM | 343 (K), 346 (F) and/or 349 (R) | most efficient at capturing aggregated dGAE | increase in immunoreactivity | – | –
B2 | 457900 M⁻¹ s⁻¹ | 0.005218 s⁻¹ | – | 323 (G), 324 (S), 325 (L), 326 (G), 327 (N) and/or 328 (I) | – | increase in immunoreactivity | 323800 M⁻¹ s⁻¹ | 0.001367 s⁻¹
B3 | 339800 M⁻¹ s⁻¹ | 4.748e-05 s⁻¹ | – | – | most efficient at capturing aggregated dGAE | – | – | –
